Measurements from patent publication US20250073311A1, “DOSAGE REGIME” (ZEALAND PHARMA A/S, priority 2021, published 2025).
Numbered stars: 1 amine (or outer) side, 2 acyl side, 3 side chain; on linkers, the order of the positions; unused ones are H or OH. Square brackets hold non-standard residues; d marks the D form. Side chains are listed from the residue outwards. * marks the point of attachment. C20 diacid = O=C(O)CCCCCCCCCCCCCCCCCCC(=O)*; C18 diacid = O=C(O)CCCCCCCCCCCCCCCCC(=O)*; γGlu = O=C(O)[C@H](CCC(=O)[*:2])N[*:1]; AEEA = NCCOCCOCC(=O)O; Aib = CC(C)(N)C(=O)O

T1: human GLP-2 receptor (hGLP2-R) (human, UniProt O95838)
T1 sequence: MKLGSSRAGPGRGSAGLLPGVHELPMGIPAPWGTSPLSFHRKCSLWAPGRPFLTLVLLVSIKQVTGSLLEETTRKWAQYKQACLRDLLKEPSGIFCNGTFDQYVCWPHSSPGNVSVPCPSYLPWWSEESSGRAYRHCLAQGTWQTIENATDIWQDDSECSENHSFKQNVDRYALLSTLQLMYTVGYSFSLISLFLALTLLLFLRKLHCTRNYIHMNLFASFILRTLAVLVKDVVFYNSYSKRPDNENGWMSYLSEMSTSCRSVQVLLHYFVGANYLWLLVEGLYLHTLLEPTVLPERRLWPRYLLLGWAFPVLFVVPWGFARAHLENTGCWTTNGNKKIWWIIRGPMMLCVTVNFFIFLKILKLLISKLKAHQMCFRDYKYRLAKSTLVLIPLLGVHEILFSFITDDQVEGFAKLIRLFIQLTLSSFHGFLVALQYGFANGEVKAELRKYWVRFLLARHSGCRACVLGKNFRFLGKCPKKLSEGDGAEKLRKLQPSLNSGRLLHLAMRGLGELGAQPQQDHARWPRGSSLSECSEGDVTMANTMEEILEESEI

B1: Compound 40 (peptide)
peptide: H-H[Aib]EGSFTSELATILDEQAARDFIAWLIEHKITD[dK][dK][dK][dK][dK][dK]([γGlu-C18 diacid])-NH2
SMILES: CC[C@H](C)[C@H](NC(=O)[C@H](Cc1ccccc1)NC(=O)[C@H](CC(=O)O)NC(=O)[C@H](CCCNC(=N)N)NC(=O)[C@H](C)NC(=O)[C@H](C)NC(=O)[C@H](CCC(N)=O)NC(=O)[C@H](CCC(=O)O)NC(=O)[C@H](CC(=O)O)NC(=O)[C@H](CC(C)C)NC(=O)[C@@H](NC(=O)[C@@H](NC(=O)[C@H](C)NC(=O)[C@H](CC(C)C)NC(=O)[C@H](CCC(=O)O)NC(=O)[C@H](CO)NC(=O)[C@@H](NC(=O)[C@H](Cc1ccccc1)NC(=O)[C@H](CO)NC(=O)CNC(=O)[C@H](CCC(=O)O)NC(=O)C(C)(C)NC(=O)[C@@H](N)Cc1c[nH]cn1)[C@@H](C)O)[C@@H](C)O)[C@@H](C)CC)C(=O)N[C@@H](C)C(=O)N[C@@H](Cc1c[nH]c2ccccc12)C(=O)N[C@@H](CC(C)C)C(=O)N[C@H](C(=O)N[C@@H](CCC(=O)O)C(=O)N[C@@H](Cc1c[nH]cn1)C(=O)N[C@@H](CCCCN)C(=O)N[C@H](C(=O)N[C@H](C(=O)N[C@@H](CC(=O)O)C(=O)N[C@H](CCCCN)C(=O)N[C@H](CCCCN)C(=O)N[C@H](CCCCN)C(=O)N[C@H](CCCCN)C(=O)N[C@H](CCCCN)C(=O)N[C@H](CCCCNC(=O)CC[C@H](NC(=O)CCCCCCCCCCCCCCCCC(=O)O)C(=O)O)C(N)=O)[C@@H](C)O)[C@@H](C)CC)[C@@H](C)CC
B2: Compound 43 (peptide)
peptide: H-H[Aib]EGSFTSELATILDK([AEEA-AEEA-γGlu-C20 diacid])KAARDFIAWLIEHKITD-OH
SMILES: CC[C@H](C)[C@H](NC(=O)[C@H](Cc1ccccc1)NC(=O)[C@H](CC(=O)O)NC(=O)[C@H](CCCNC(=N)N)NC(=O)[C@H](C)NC(=O)[C@H](C)NC(=O)[C@H](CCCCN)NC(=O)[C@H](CCCCNC(=O)COCCOCCNC(=O)COCCOCCNC(=O)CC[C@H](NC(=O)CCCCCCCCCCCCCCCCCCC(=O)O)C(=O)O)NC(=O)[C@H](CC(=O)O)NC(=O)[C@H](CC(C)C)NC(=O)[C@@H](NC(=O)[C@@H](NC(=O)[C@H](C)NC(=O)[C@H](CC(C)C)NC(=O)[C@H](CCC(=O)O)NC(=O)[C@H](CO)NC(=O)[C@@H](NC(=O)[C@H](Cc1ccccc1)NC(=O)[C@H](CO)NC(=O)CNC(=O)[C@H](CCC(=O)O)NC(=O)C(C)(C)NC(=O)[C@@H](N)Cc1c[nH]cn1)[C@@H](C)O)[C@@H](C)O)[C@@H](C)CC)C(=O)N[C@@H](C)C(=O)N[C@@H](Cc1c[nH]c2ccccc12)C(=O)N[C@@H](CC(C)C)C(=O)N[C@H](C(=O)N[C@@H](CCC(=O)O)C(=O)N[C@@H](Cc1c[nH]cn1)C(=O)N[C@@H](CCCCN)C(=O)N[C@H](C(=O)N[C@H](C(=O)N[C@@H](CC(=O)O)C(=O)O)[C@@H](C)O)[C@@H](C)CC)[C@@H](C)CC
B3: Compound 44 (peptide)
peptide: H-H[Aib]EGSFTSELATILEGK([AEEA-AEEA-γGlu-C20 diacid])AARDFIAWLIEHKITD-OH
SMILES: CC[C@H](C)[C@H](NC(=O)[C@H](Cc1ccccc1)NC(=O)[C@H](CC(=O)O)NC(=O)[C@H](CCCNC(=N)N)NC(=O)[C@H](C)NC(=O)[C@H](C)NC(=O)[C@H](CCCCNC(=O)COCCOCCNC(=O)COCCOCCNC(=O)CC[C@H](NC(=O)CCCCCCCCCCCCCCCCCCC(=O)O)C(=O)O)NC(=O)CNC(=O)[C@H](CCC(=O)O)NC(=O)[C@H](CC(C)C)NC(=O)[C@@H](NC(=O)[C@@H](NC(=O)[C@H](C)NC(=O)[C@H](CC(C)C)NC(=O)[C@H](CCC(=O)O)NC(=O)[C@H](CO)NC(=O)[C@@H](NC(=O)[C@H](Cc1ccccc1)NC(=O)[C@H](CO)NC(=O)CNC(=O)[C@H](CCC(=O)O)NC(=O)C(C)(C)NC(=O)[C@@H](N)Cc1c[nH]cn1)[C@@H](C)O)[C@@H](C)O)[C@@H](C)CC)C(=O)N[C@@H](C)C(=O)N[C@@H](Cc1c[nH]c2ccccc12)C(=O)N[C@@H](CC(C)C)C(=O)N[C@H](C(=O)N[C@@H](CCC(=O)O)C(=O)N[C@@H](Cc1c[nH]cn1)C(=O)N[C@@H](CCCCN)C(=O)N[C@H](C(=O)N[C@H](C(=O)N[C@@H](CC(=O)O)C(=O)O)[C@@H](C)O)[C@@H](C)CC)[C@@H](C)CC
B4: Compound 46 (peptide)
peptide: H-H[Aib]EGTFTSELATILDEQAAK([AEEA-AEEA-γGlu-C20 diacid])DFIAWLIEHKITD-OH
SMILES: CC[C@H](C)[C@H](NC(=O)[C@H](Cc1ccccc1)NC(=O)[C@H](CC(=O)O)NC(=O)[C@H](CCCCNC(=O)COCCOCCNC(=O)COCCOCCNC(=O)CC[C@H](NC(=O)CCCCCCCCCCCCCCCCCCC(=O)O)C(=O)O)NC(=O)[C@H](C)NC(=O)[C@H](C)NC(=O)[C@H](CCC(N)=O)NC(=O)[C@H](CCC(=O)O)NC(=O)[C@H](CC(=O)O)NC(=O)[C@H](CC(C)C)NC(=O)[C@@H](NC(=O)[C@@H](NC(=O)[C@H](C)NC(=O)[C@H](CC(C)C)NC(=O)[C@H](CCC(=O)O)NC(=O)[C@H](CO)NC(=O)[C@@H](NC(=O)[C@H](Cc1ccccc1)NC(=O)[C@@H](NC(=O)CNC(=O)[C@H](CCC(=O)O)NC(=O)C(C)(C)NC(=O)[C@@H](N)Cc1c[nH]cn1)[C@@H](C)O)[C@@H](C)O)[C@@H](C)O)[C@@H](C)CC)C(=O)N[C@@H](C)C(=O)N[C@@H](Cc1c[nH]c2ccccc12)C(=O)N[C@@H](CC(C)C)C(=O)N[C@H](C(=O)N[C@@H](CCC(=O)O)C(=O)N[C@@H](Cc1c[nH]cn1)C(=O)N[C@@H](CCCCN)C(=O)N[C@H](C(=O)N[C@H](C(=O)N[C@@H](CC(=O)O)C(=O)O)[C@@H](C)O)[C@@H](C)CC)[C@@H](C)CC
B5: Compound 41 (peptide)
peptide: H-H[Aib]EGTFTSELATILDK([γGlu-C20 diacid])QAARDFIAWLIQHKITD-OH
SMILES: CC[C@H](C)[C@H](NC(=O)[C@H](Cc1ccccc1)NC(=O)[C@H](CC(=O)O)NC(=O)[C@H](CCCNC(=N)N)NC(=O)[C@H](C)NC(=O)[C@H](C)NC(=O)[C@H](CCC(N)=O)NC(=O)[C@H](CCCCNC(=O)CC[C@H](NC(=O)CCCCCCCCCCCCCCCCCCC(=O)O)C(=O)O)NC(=O)[C@H](CC(=O)O)NC(=O)[C@H](CC(C)C)NC(=O)[C@@H](NC(=O)[C@@H](NC(=O)[C@H](C)NC(=O)[C@H](CC(C)C)NC(=O)[C@H](CCC(=O)O)NC(=O)[C@H](CO)NC(=O)[C@@H](NC(=O)[C@H](Cc1ccccc1)NC(=O)[C@@H](NC(=O)CNC(=O)[C@H](CCC(=O)O)NC(=O)C(C)(C)NC(=O)[C@@H](N)Cc1c[nH]cn1)[C@@H](C)O)[C@@H](C)O)[C@@H](C)O)[C@@H](C)CC)C(=O)N[C@@H](C)C(=O)N[C@@H](Cc1c[nH]c2ccccc12)C(=O)N[C@@H](CC(C)C)C(=O)N[C@H](C(=O)N[C@@H](CCC(N)=O)C(=O)N[C@@H](Cc1c[nH]cn1)C(=O)N[C@@H](CCCCN)C(=O)N[C@H](C(=O)N[C@H](C(=O)N[C@@H](CC(=O)O)C(=O)O)[C@@H](C)O)[C@@H](C)CC)[C@@H](C)CC

How the values were obtained:
[1] = target: T1, human GLP-2 receptor (hGLP2-R); test: cell-based or functional assay
[2] = target: human glucagon-like peptide 1 receptor (GLP-1R) (human, UniProt P43220); test: cell-based or functional assay

Binder	EC50 GLP-2 (nM), cAMP AlphaScreen [1]	EC50 GLP-1 (nM), cAMP AlphaScreen [2]
B1	0.5 nM	0.074 nM
H-H[Aib]EGSFTSELATILDEQAAK([AEEA-AEEA-γGlu-C20 diacid])DFIAWLIEHKITD-OH [Compound 45]	0.36 nM	1.4 nM
B2	0.15 nM	0.096 nM
B3	0.14 nM	0.063 nM
B4	0.38 nM	0.26 nM
H-H[Aib]EGSFTSEK([AEEA-AEEA-γGlu-C20 diacid])ATILDEQAARDFIAWLIEHKITD-OH [Compound 42]	0.33 nM	0.067 nM
B5	0.62 nM	0.048 nM
